Km and kcat data for seven proteins are collected here from doi:10.1101/457440v1.

Substrate in series [1]: O=C(/C=C/c1ccc(O)cc1)c1c(O)cc(O)cc1O
The series can be described thus: purified protein.

Substrate in series [2]: O=C(/C=C/c1ccc(O)cc1)c1ccc(O)cc1O
The series can be described thus: purified protein.

Substrate in series [3]: O=C(/C=C/c1ccc(O)cc1)c1ccc(O)cc1O
Put plainly: Michaelis-Menten kinetics of cyclization. Type of series: biochemical, Medicago sativa.

Numbering of substitutions follows the chain as printed. Names and notes keep the numbering of the source.

B1: AtCHI-1 (Arabidopsis thaliana) (protein)
chain: MSSSNACASPSPFPAVTKLHVDSVTFVPSVKSPASSNPLFLGGAGVRGLDIQGKFVIFTVIGVYLEGNAVPSLSVKWKGKTTEELTESIPFFREIVTGAFEKFIKVTMKLPLTGQQYSEKVTENCVAIWKQLGLYTDCEAKAVEKFLEIFKEETFPPGSSILFALSPTGSLTVAFSKDDSIPETGIAVIENKLLAEAVLESIIGKNGVSPGTRLSVAERLSQLMMKNKDEKEVSDHSVEEKLAKEN
Turning to B1, in “purified protein [1]”, the Km (commonly the substrate concentration at which the rate is half of its maximum) worked out at 62 ± 9 µM; the catalytic constant (kcat) (as a rule, the number of substrate molecules converted per active site and unit of time at saturation) came out at 379 ± 35 min⁻¹. In addition, in the series “purified protein [2]”, the Km is 16.8 ± 3.5 µM and the kcat was 0.064 ± 0.005 min⁻¹.

B2: AtCHI-1 (Arabidopsis thaliana; V106G) (protein)
chain: B1 chain with V106G
As for B2, in the series “purified protein [1]”, the Km amounted to 19.0 ± 0.5 µM and the kcat worked out at 332 ± 34 min⁻¹.

B3: MsCHI-2 (Medicago sativa; G95V) (protein)
chain: MAASITAITVENLEYPAVVTSPVTGKSYFLGGAGERGLTIEGNFIKFTAIGVYLEDIAVASLAAKWKGKSSEELLETLDFYRDIISGPFEKLIRVSKIRELSGPEYSRKVMENCVAHLKSVGTYGDAEAEAMQKFAEAFKPVNFPPGASVFYRQSPDGILGLSFSPDTSIPEKEAALIENKAVSSAVLETMIGEHAVSPDLKRCLAARLPALLNEGAFKIGN
On to B3, for which the figures for the Km in “purified protein [1]” and in “purified protein [2]” were 5.3 ± 2.6 µM and 65 ± 10 µM, respectively. Moreover, the results for the catalytic constant (kcat) in the series “purified protein [1]” and in “purified protein [2]” were 512 ± 26 min⁻¹ and 2.16 ± 0.02 min⁻¹, respectively.

B4: MsCHI-2 (Medicago sativa; G95T) (protein)
chain: B3 chain with V95T
Turning to B4, in series [3], the Michaelis constant (Km) amounted to 117 ± 12 µM and the kcat was 0.388 ± 0.0283 s⁻¹.

B5: MsCHI-2 (Medicago sativa; K97M) (protein)
chain: B3 chain with V95G, K97M
In the case of B5, in the series “purified protein [1]”, the Km came to 14.5 ± 4.2 µM and the kcat is given as 1,300 ± 154 min-1. In addition, in the series “purified protein [2]”, the Km worked out at 25.7 ± 2.1 µM and the turnover number (kcat) is 658 ± 11 min⁻¹.

B6: MsCHI-2 (Medicago sativa) (protein)
chain: B3 chain with V95G
As for B6, the Michaelis-Menten constant (Km) in “purified protein [1]” came out at 112 ± 28 µM; in the series “purified protein [2]”, 8.4 ± 2.0 µM. In addition, the kcat in the series “purified protein [1]” is recorded as 11,180 ± 1,380 min-1; in “purified protein [2]” it was 2,250 ± 165 min-1.

B7: MsCHI-2 (Medicago sativa; R36K) (protein)
chain: B3 chain with R36K, V95G
Take B7: in the series “purified protein [1]”, the Km is 98.3 ± 1.5 µM and the kcat is 25.4 ± 1.1 min⁻¹.
